Measured values published in article PMC6856015.

Molecular target: Calmodulin (recombinant CaM) (UniProt P0DP23)
Assay: cross-linking; photoaffinity labeling (PAL): 5 μM CaM and 5 μM Bpa-Mover(203-221), 10 mM HEPES pH 7.2, 150 mM KCl, 5 mM DTT, 2 h RT in the dark, with 100 μM Ca2+, UV irradiation; photoadducts read by SDS-PAGE and MALDI-TOF-MS

stoichiometry N (peptide per CaM): 1
Substance: Bpa-Mover(203-221), photoreactive variant of the rat Mover peptide 203-221 (from UniProt A8WCF8 203-221)
